According to patent US20120301394A1 (published 2012):
Substitutions are numbered along the chain they refer to.

T1: Recombinant human MMR (R&D systems) (human, UniProt P22897 19-1383)
T1 construct: Bought protein (R&D Systems #2534) coated on ELISA plates; also called hMMR; MRC1
T1 sequence: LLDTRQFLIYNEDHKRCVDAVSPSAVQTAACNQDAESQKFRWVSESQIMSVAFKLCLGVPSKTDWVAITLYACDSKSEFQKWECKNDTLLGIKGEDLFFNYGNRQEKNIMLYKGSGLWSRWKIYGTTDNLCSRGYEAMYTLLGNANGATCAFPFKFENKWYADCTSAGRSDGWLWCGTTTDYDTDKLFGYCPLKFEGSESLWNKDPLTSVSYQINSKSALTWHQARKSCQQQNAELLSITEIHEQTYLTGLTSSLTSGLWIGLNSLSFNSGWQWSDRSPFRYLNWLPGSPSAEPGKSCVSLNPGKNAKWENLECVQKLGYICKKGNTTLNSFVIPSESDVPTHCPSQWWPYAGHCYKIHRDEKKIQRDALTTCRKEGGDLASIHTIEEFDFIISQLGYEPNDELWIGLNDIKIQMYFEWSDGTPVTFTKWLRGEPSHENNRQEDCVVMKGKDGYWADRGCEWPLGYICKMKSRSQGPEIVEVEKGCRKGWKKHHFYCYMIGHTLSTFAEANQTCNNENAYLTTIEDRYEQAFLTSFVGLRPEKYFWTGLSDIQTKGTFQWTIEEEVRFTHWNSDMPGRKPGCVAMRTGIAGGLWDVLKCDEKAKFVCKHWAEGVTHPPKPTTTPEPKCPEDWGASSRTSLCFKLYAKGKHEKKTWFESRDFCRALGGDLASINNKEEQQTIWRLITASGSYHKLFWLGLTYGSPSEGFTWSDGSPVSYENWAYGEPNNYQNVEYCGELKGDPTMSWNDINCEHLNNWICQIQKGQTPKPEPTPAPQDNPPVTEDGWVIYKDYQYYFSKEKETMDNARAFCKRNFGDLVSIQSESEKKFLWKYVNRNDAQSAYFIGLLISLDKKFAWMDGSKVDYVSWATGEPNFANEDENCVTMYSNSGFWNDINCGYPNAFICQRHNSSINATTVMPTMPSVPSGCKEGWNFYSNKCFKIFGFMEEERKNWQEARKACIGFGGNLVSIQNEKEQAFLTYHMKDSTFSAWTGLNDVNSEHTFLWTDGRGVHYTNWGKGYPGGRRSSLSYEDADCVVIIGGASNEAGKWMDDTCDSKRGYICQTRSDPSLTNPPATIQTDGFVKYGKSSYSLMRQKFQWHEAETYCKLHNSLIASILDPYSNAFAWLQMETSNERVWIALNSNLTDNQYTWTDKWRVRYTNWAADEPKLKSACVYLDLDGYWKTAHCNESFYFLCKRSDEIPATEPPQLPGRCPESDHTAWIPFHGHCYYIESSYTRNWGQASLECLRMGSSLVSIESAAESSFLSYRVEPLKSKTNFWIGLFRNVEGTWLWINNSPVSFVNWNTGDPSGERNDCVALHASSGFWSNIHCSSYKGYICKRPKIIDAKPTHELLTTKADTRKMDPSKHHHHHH

T2: Recombinant mouse MMR (R&D systems) (mouse, UniProt Q61830 20-1388)
T2 construct: Bought recombinant extracellular portion of mouse MMR with a C-terminal His tag; It was immobilized on the CM5 chip for SPR and coated on plates for PE-ELISA; The SPR methods say only 'MMR'; also called mMMR; recombinant MMR
T2 sequence: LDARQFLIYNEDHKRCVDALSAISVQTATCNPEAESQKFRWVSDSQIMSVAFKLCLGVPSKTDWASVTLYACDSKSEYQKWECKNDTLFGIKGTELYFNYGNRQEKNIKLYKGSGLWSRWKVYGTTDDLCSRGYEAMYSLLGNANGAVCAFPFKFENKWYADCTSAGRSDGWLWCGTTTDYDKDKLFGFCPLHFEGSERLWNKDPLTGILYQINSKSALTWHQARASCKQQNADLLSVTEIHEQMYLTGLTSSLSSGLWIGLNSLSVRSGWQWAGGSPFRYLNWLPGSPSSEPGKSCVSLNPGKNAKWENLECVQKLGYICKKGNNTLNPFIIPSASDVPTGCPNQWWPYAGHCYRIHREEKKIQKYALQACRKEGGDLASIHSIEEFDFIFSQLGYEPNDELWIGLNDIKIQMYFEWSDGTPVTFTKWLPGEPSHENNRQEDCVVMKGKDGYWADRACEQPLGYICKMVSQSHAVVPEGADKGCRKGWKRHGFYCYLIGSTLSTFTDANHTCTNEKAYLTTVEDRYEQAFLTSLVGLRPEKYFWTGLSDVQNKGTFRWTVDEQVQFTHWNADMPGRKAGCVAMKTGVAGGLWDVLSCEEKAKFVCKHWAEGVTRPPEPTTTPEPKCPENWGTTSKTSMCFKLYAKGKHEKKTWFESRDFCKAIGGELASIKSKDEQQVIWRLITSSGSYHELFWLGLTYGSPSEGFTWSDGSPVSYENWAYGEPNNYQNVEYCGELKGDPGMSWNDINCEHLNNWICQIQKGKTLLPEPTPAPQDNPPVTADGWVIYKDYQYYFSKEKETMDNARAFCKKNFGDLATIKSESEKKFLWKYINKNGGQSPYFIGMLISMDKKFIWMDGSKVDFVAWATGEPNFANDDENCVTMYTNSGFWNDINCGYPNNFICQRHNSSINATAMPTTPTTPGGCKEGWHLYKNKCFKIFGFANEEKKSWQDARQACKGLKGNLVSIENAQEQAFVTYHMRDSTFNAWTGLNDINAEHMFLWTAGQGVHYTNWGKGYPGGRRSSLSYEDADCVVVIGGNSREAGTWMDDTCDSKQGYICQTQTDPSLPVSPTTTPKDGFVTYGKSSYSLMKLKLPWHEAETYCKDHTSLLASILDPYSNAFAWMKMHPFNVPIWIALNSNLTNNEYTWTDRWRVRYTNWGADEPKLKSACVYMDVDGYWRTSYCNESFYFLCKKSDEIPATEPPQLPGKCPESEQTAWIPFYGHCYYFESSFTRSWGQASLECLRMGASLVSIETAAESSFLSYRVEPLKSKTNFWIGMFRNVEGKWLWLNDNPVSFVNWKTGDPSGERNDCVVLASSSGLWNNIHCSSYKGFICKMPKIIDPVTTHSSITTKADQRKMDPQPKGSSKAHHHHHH

B1: NbhmMMRm14.4 (VHH)
VHH: QVQLQESGGGLVQAGDSLRLSCAASGRTFSINYMGWYRQAPGKQRELVAAITSGSGSTNYADSVKGRFTISRDNAKNTMYLQMNSLKPEDTAVYYCNADMDSSLSGGYVDVWGQGTQVTVSS
notes: Tested as a periplasmic extract in PE-ELISA
B2: NbhmMMRm14.93 (VHH)
VHH: B1 VHH with N77K
notes: as for B1
B3: NbhMMRm12.6 (VHH)
VHH: QVQLQESGGGLVQPGGSLRLSCVVSGSFLSINHMGWYRQVSGEQRELVAAITSGGSTNYADSVKGRFTISRDSAKNTVYLQMNSLKPEDTAVYYCNADALTMLPPFDFWGQGTQVTVSS
notes: as for B1
B4: NbhmMMRm24.31 (VHH)
VHH: QVQLQESGGGLVQPGGSLRLSCTATGFTLKNHHIGWLRQAPGKEREGVASINSSGGSTNYADSVQGRFTISRDNAKNTVFLQMNSLKSEDTAVYYCARLRRYYGLNLDPGSYDYWGQGTQVTVSS
notes: as for B1
B5: NbhMMRm2.15 (VHH)
VHH: QVQLQESGGGLVQPGESLRLSCKLSGFTLDYYDIGWFRQAPGKEREGVSCISSIGGSANYADSVKGRFTISRDNVKNTVYLQMNSLKPEDTAIYYCAAEAQTPYNDGDCTRASYDYWGQGIQVTVSS
notes: as for B1
B6: NbhMMRm1.33 (VHH)
VHH: QVQLQESGGGLVQPGGSLRLSCAASGFTLDNYTVAWFRQAPGKEREGVSCISSSGGSTNYADSVKGRFTISRDNSKKSVYLQMNSLKPEDTAIYTCAAERAPPYYSGYYFFDSTCVAASYDYWGQGTQVTVSS
notes: as for B1
B7: NbhmMMRm15.49 (VHH)
VHH: QVQLQESGGGLVQAGGSLRLSCAASGSTFSINNMGWYRQAPGKQRELVAGITGGNTHYADSVKGRFTISRDNAKNTMYLQMNSLKPEDTAVYYCNANWGAYWGQGTQVTVSS
notes: as for B1
B8: NbhmMMRm20.52 (VHH)
VHH: QVQLQESGGGLVQAGGSLRLSCAASGRIFSAYAMGWFRQAPGKEREFVAAISRSGDSTDYADSVKGRFTISRDSAKNMVYLQMNSLKPEDTALYHCAARTVSAPPSAAWGYGYWGQGTQVTVSS
notes: as for B1
B9: NbhmMMRm6.71 (VHH)
VHH: QVQLQESGGGLVQAGGSLRLSCAASGGTFDDSVIGWFRQAPGKEREGVSCISSNDGTTHYASPVKGRFTISSDNAKNTVYLQMNSLKPEDTAVYYCAAETPSIGSPCTSASYDYWGQGTQVTVSS
notes: as for B1
B10: NbhmMMRm19.52 (VHH)
VHH: QVQLQESGGGLVQAGGSLRLSCLASGDTFSNYVMAWFRQAPGKEREIVAAIRLSGARYVPDSVKGRFTISRDNAKNAMYLQMTSLKPEDTARYYCAAGHTWGQYAYWGQGTQVTVSS
notes: as for B1
B11: NbhmMMRm17.72 (VHH)
VHH: QVQLQESGGGLVQPGGSLRLSCAASGSIVSINAMGWYRQAPGKQRELVALVTGSGRTNLADSVKGRFTISRDNAKNTVYLQMNSLKPEDTAVYYCNVLVIGPLEGYDYWGQGTQVTVSS
notes: as for B1
B12: NbhMMRm3.1 (VHH)
VHH: QVQLQESGGGLVQPGGSLRLSCAASGFTLDYYAIGWFRQAPGKEREGISCISYKGGSTTYADSVKGRFTISKDNAKNTAYLQMNNLKPEDTGIYYCAAGFVCYNYDYWGPGTQVTVSS
notes: as for B1
B13: NbhmMMRm3.49 (VHH)
VHH: B12 VHH with T28S, N85S, Y95S, P110Q
notes: as for B1
B14: NbhMMRm10.19 (VHH)
VHH: QVQLQESGGGLVQPGGSLKLSCAASGSIFSIKTMGWYRQAPGKQRELVAAITSGGSTNYADSVKGRFTISRDNAKNTVYLQMNSLKPEDTAVYYCNADGVVAWDQPYDNYWGQGTQVTVSS
notes: as for B1
B15: NbhmMMRm10.79 (VHH)
VHH: B14 VHH with I51V, T52S, T77A
notes: as for B1
B16: NbhmMMRm22.84 (VHH)
VHH: QVQLQESGGGLVQPGGSLRLSCAASGRTFSNYVNYAMGWFRQFPGKEREFVASISWSSVTTYYADSVKGRFTISRDNAKNTVYLQMNSLKPEDTAVYYCAAHLAQYSDYAYRDPHQFGAWGQGTQVTVSS
notes: as for B1
B17: NbhMMRm5.38 (VHH)
VHH: QVQLQESGGGLVQAGGSLRLSCAASGFTDDDYDIGWFRQAPGKEREGVSCISSSDGSTYYADSVKGRFTISSDNAKNTVYLQMNSLKPEDTAVYYCAADFFRWDSGSYYVRGCRHATYDYWGQGTQVTVSS
notes: as for B1

What was measured:
[1] = target: T1, Recombinant human MMR (R&D systems); assay: PE-ELISA, periplasmic extract on coated human MMR
[2] = target: T2, Recombinant mouse MMR (R&D systems); assay: PE-ELISA, periplasmic extract on coated mouse MMR
[3] = target: T1, Recombinant human MMR (R&D systems); assay: PE-ELISA, periplasmic extract on coated human MMR, OD405 at least 3x over milk-blocking proteins

| Binder | binding result [1] | binding result [2] | binding result [3] |
| --- | --- | --- | --- |
| B1 | binds | binds | – |
| B2 | binds | binds | – |
| B3 | – | – | binds |
| B4 | binds | binds | – |
| B5 | – | – | binds |
| B6 | – | – | binds |
| B7 | binds | binds | – |
| B8 | binds | binds | – |
| B9 | binds | binds | – |
| B10 | binds | binds | – |
| B11 | binds | binds | – |
| B12 | – | – | binds |
| B13 | binds | binds | – |
| B14 | – | – | binds |
| B15 | binds | binds | – |
| B16 | binds | binds | – |
| B17 | – | – | binds |
